# According to patent publication US20210403579A1 (DELINIA, published 2021):
# T1: Human ST2 (human, UniProt Q01638 19-328, limits assumed)
# T1 construct: also called human ST2 protein; Interleukin 1 receptor-like 1
# T1 sequence (looked up): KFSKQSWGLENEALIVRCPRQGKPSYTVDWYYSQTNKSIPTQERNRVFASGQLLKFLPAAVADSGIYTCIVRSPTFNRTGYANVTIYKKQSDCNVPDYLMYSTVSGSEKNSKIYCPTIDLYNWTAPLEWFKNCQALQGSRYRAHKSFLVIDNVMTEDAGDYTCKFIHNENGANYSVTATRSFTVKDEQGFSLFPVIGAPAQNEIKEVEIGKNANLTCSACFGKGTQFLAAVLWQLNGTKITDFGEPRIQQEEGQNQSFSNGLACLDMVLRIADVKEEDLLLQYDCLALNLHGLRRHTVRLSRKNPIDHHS
# Biological target: T1, Human ST2
# Assay: SPR (Carterra), antibody immobilized, ST2 analyte
# Protocol: Binding of the reformatted human ST2 antibodies to the human and mouse ST2 proteins was evaluated by surface plasmon resonance (SPR), using a high throughput antibody screening and characterization platform from Carterra (Salt Lake City, Utah).
Binder,Kd [nM],koff [s⁻¹],kon [M⁻¹ s⁻¹]
"Human ST2 IgG1 Antibody 59 (antibody, V domains shown, IgG1; also called ST2 Antibody 59) VH: EVQLLESGGGVVQPGRSLRLSCAASGFTFSSYWMSWVRQAPGKGLEWVSSISSDSSYKYYADSVKGRFTISRDNSKNTLYLQMNSLRAEDTAVYYCARDGLRWDAFDIWGQGTMVTVSS VL: not shown",1000,0.19,190000
"Human ST2 IgG1 Antibody 73 (antibody, V domains shown, IgG1; also called ST2 Antibody 73) VH: EVQLLESGGGLVQPGGSLRLSCAASGFAFSSHWMHWVRQAPGKGLEWVAVISYDGSNKYYADSVKGRFTISRDNSKNTLYLQMNSLRAEDTAVYYCARDRGMIDYWGQGTLVTVSS VL: DIQMTQSPSSLSASVGDRVTITCRASQGIGSWLAWYQQKPGKAPKLLIHAATKLQTGVPSRFSGSGSGTDFTLTISSLQPEDFATYYCQQSYSTPFTFGPGTKVDIKR",603,0.085,140000
"Human ST2 IgG1 Antibody 57 (antibody, V domains shown, IgG1; also called ST2 Antibody 57) VH: QVQLVQSGAEVKKPGASVKVSCKASGYTFTGYYMHWVRQAPGQGLEWMGVINPSGGSTSYAQKFQGRVTMTRDTSTSTVYMELSSLRSEDTAVYYCARGDYYYGSGSDYYYYYGMDVWGQGTLVTVSS VL: DIQMTQSPSSLSASVGDRVTITCRASQGVTSWLAWYQQKPGKAPKLLIYAASTLQSGVPSRFSGSGSGTDFTLTISSLQPEDFATYYCQQANSFPLTFGGGTKVEIKR",140,0.072,510000
"Human ST2 IgG1 Antibody 71 (antibody, V domains shown, IgG1; also called ST2 Antibody 71) VH: QVQLVQSGAEVKKPGASVKVSCKASGGTFSNYGVSWVRQAPGQGLEWMGGINPSRGTTTYAQKFQGRVTMTRDTSTSTVYMELSSLRSEDTAVYYCAKGDIVVVPAAMFSLGPGYYYYMDVWGKGTTVTVSS VL: DIQMTQSPSSLSASVGDRVTITCRASQSISSYLNWYQQKPGKAPKLLIYAASSLQSGVPSRFSGSGSGTDFTLTISSLQPEDFATYYCQQANSFPITFGQGTKLEIKR",912,0.12,140000
"Human ST2 IgG1 Antibody 60 (antibody, V domains shown, IgG1; also called ST2 Antibody 60) VH: QVQLVQSGAEVKKPGASVKVSCKASGYTFTDHYLHWVRQAPGQGLEWMGIINPSGGYTSHAQKFQGRVTMTRDTSTSTVYMELSSLRSEDTAVYYCARDRFRELLGSRYYGMDVWGQGTTVTVSS VL: DIQMTQSPSSLSASVGDRVTITCRASQDLSNHLAWYQQKPGKAPKLLIYAASTLQSGVPSRFSGSGSGTDFTLTISSLQPEDFATYYCQQYHDWPLTFGQGTKVEIKR",1100,0.12,110000
"Human ST2 IgG1 Antibody 64 (antibody, V domains shown, IgG1; also called ST2 Antibody 64) VH: QVQLVQSGAEVKKPGSSVKVSCKASGYFFTSYGISWVRQAPGQGLEWMGGVIPISGTANYAQSFQGRVTITADESTSTAYMELSSLRSEDTAVYYCARDENGAFDIWGQGTTVTVSS VL: not shown",366,0.12,330000
"Human ST2 IgG1 Antibody 62 (antibody, V domains shown, IgG1; also called ST2 Antibody 62) VH: QVQLVQSGAEVKKPGSSVKVSCKASGYIFTNYWIQWVRQAPGQGLEWMGGIIPIFETANYAQKFQGRVTITADDSTSTAYMELSSLRSEDTAVYYCARLGDRGDFDYWGQGTLVTVSS VL: DIVMTQSPDSLAVSLGERATINCKSSQSISHSPNTRDYLAWYQQKPGQPPKLLIYWASTRESGVPDRFSGSGSGTDFTLTISSLQAEDVAVYYCQQYYRFPLAFGQSTKVEIKR",71,0.068,960000
"Human ST2 IgG1 Antibody 58 (antibody, V domains shown, IgG1; also called ST2 Antibody 58) VH: EVQLLESGAEVKKPGSSVKVSCKASGGTFSSYAISWVRQAPGQGLEWMGGIIPIFGTANYAQKFQGRVTITADKSTSTAYMELSSLRSEDTAVYYCARPRLAVAGGWYFDLWGRGTLVTVSS VL: DIQMTQSPSSLSASVGDRVTITCQASQDISNYLNWYQQKPGKAPKLLIYAASSLQSGVPSRFSGSGSGTDFTLTISSLQPEDFATYYCQQSFSSTPTFGQGTKLEIKR",628,0.14,220000
"Human ST2 IgG1 Antibody 70 (antibody, V domains shown, IgG1; also called ST2 Antibody 70) VH: QVQLVQSGAEVKKPGSSVKVSCKASGYAFTDYFIHWVRQAPGQGLEWMGGIIPIFGTANYAQKFQGRVTITADKSTSTAYMELSSLRSEDTAVYYCARVAYGAFDIWGQGTMVTVSS VL: EIVMTQSPATLSVSPGERATLSCRASQSVSSSYLAWYQQKPGQAPRLLIYGASTRATGIPARFSGSGSGTEFTLTISSLQSEDFAVYYCQQYNNWPLTFGGGTKVEIKR",268,0.099,370000
"Human ST2 IgG1 Antibody 61 (antibody, V domains shown, IgG1; also called ST2 Antibody 61) VH: QVQLVQSGAEVKKPGSSVKVSCKASGGTFSNYAISWVRQAPGQGLEWMGGIIPVFGTATYAQKFQGRVTITADESTSTAYMELSSLRSEDTAVYYCARVTAMGVGWYFDLWGRGTLVTVSS VL: DIVMTQSPLSLPVTPGEPASISCRSSQSLLHSNGYNYLDWYLQKPGQSPQLLIYAASSLQSGVPDRFSGSGSGTDFTLKISRVEAEDVGVYYCMQSLQTPPTFGQGTKLEIKR",563,0.14,260000
"Human ST2 IgG1 Antibody 66 (antibody, V domains shown, IgG1; also called ST2 Antibody 66) VH: QVQLVQSGAEVKKPGSSVKVSCKASGGTFSSNAISWVRQAPGQGLEWMGGIIPIFGTANYAQKFQGRVTITADESTSTAYMELSSLRSEDTAVYYCAGSPTGTPRVVFDYWGQGTLVTVSS VL: DIVMTQSPLSLPVTPGEPASISCRSSQSLLHSNGYNYLDWYLQKPGQSPQLLIYAASSLQSGVPDRFSGSGSGTDFTLKISRVEAEDVGVYYCMQALQTPITFGQGTRLEIKR",176,0.0028,16000
"Human ST2 IgG1 Antibody 69 (antibody, V domains shown, IgG1; also called ST2 Antibody 69) VH: QVQLVQSGAEVKKPGASVKVSCKASGYTFSDYYVHWVRQAPGQGLEWMGWISAYNGNTNYAQKLQGRVTMTRDTSTSTVYMELSSLRSEDTAVYYCARGSLDIWFREPGVYMDVWGKGTTVTVSS VL: DIVMTQSPLSLPVTPGEPASISCRSSQSLLHSNGYNYLDWYLQKPGQSPQLLIYAASSLQSGVPDRFSGSGSGTDFTLKISRVEAEDVGVYYCMQALQTPITFGQGTKVEIKR",71,0.029,410000
"Human ST2 IgG1 Antibody 63 (antibody, V domains shown, IgG1; also called ST2 Antibody 63) VH: QVQLVQSGAEVKKPGSSVKVSCKASGGTFSSDAINWVRQAPGQGLEWMGGIVPAFGTANYAQKFQGRVTITADESTSTAYMELSSLRSEDTAVYYCARSSSSWPYYYYYMDVWGKGTTVTVSS VL: DIVMTQSPLSLPVTPGEPASISCRSSQSLLLNNGNNFIDWYLQKPGQSPQLLIYAASILQGGVPDRFSGSGSGTDFTLKISRVEAEDVGVYYCMQALQTPPTFGQGTKVEIKR",96,0.043,450000
"Human ST2 IgG1 Antibody 68 (antibody, V domains shown, IgG1; also called ST2 Antibody 68) VH: QVQLVQSGAEVKKPGSSVKVSCKASGGTFSSYAISWVRQAPGQGLEWMGGIIPVVGSPDYAQRFQGRVTITADESTSTAYMELSSLRSEDTAVYYCARHSIVGATATSMDVWGKGTTVTVSS VL: not shown",704,0.13,190000
"Human ST2 IgG1 Antibody 56 (antibody, V domains shown, IgG1; also called ST2 Antibody 56) VH: EVQLLESGGGLVKPGGSLRLSCAASGFTFSSYAMSWVRQAPGKGLEWVSSISSDSYYKYHADSVKGRFTISRDDSKNTLYLQMNSLKTEDTAVYYCAKGADYDFWSGYLDYWGQGTLVTVSS VL: DIQMTQSPSSLSASVGDRVTITCRASQGISSYLAWYQQKPGKAPKLLIYRASTLQSGVPSRFSGSGSGTDFTLTISSLQPEDFATYYCQQSYNTPWTFGQSTKVEIKR",970,0.14,150000
"Human ST2 IgG1 Antibody 67 (antibody, V domains shown, IgG1; also called ST2 Antibody 67) VH: QVQLVQSGAEVKKPGASVKVSCKASGGTFSSYAISWVRQAPGQGLEWMGRINPNSGGTVYAQKFQGRVTMTRDTSTSTVYMELSSLRSEDTAVYYCARDTSIAARLNPDYYYYYGMDVWGQGTTVTVSS VL: DIQMTQSPSSLSASVGDRVTITCRASQSISSWLAWYQQKPGKAPKLLIYAASNLQSGVPSRFSGSGSGTDFTLTISSLQPEDFATYYCQQSYSTPVTFGQSTRLEIKR",738,0.1,140000
"Human ST2 IgG1 Antibody 75 (antibody, V domains shown, IgG1; also called ST2 Antibody 75) VH: EVQLLESGGGLVQHGGSLRLSCAASGFTFSSYWMSWVRQAPGKGLEWVSSISSSSSYIYYADSVKGRFTISRDNSKNTLYLQMNSLRAEDTAVYYCARDIAGYFDLWGRGTLVTVSS VL: DIQMTQSPSSLSASVGDRVTITCQASQSISSYLNWYQQKPGKAPKLLIYAASSLQSGVPSRFSGSGSGTDFTLTISSLQPEDFATYYCQQGYLTPYTFGQGTKLEIKR",360,0.041,120000
"Human ST2 IgG1 Antibody 72 (antibody, V domains shown, IgG1; also called ST2 Antibody 72) VH: EVQLLESGGGLVQPGGSLRLSCAASGFTFSSYGMSWVRQAPGKGLEWLAVIWSDGGHKYYADSVKGRFTISRDNSKNTLYLQMNSLRAEDTAVYYCAREVRGWFDPWGQGTLVTVSS VL: DIQMTQSPSSLSASVGDRVTITCRASENIGTWLAWYQQKPGKAPKLLIYKASSLDSGVPSRFSGSGSGTDFTLTISSLQPEDFATYYCQQSYSTPYTFGQGTKLEIKR",335,0.082,240000
"Human ST2 IgG1 Antibody 74 (antibody, V domains shown, IgG1; also called ST2 Antibody 74) VH: EVQLLESGGGLVQPGGSLRLSCAASGFTFSSYWMSWVRQAPGKGLEWVSSISSSSSYIYYADSVKGRFTISRDNSKNTLYLQMNSLRAEDTAVYYCARDQGWFDPWGQGTLVTVSS VL: DIQMTQSPSSLSASVGDRVTITCRASRAIGNNLSWYQQKPGKAPKLLIYTASSLQSGVPSRFSGSGSGTDFTLTISSLQPEDFATYYCQQSYSTPYTFGQGTKVEIKR",60,0.012,200000
